From patent publication US20240383984A1 (Genentech, published 2024)
Residue numbers refer to the chain shown, from its start.

T1: human FcRH5 protein fragment (soluble) (human, UniProt Q96RD9 16-851)
T1 construct: whole entry named; also called soluble human FcRH5; Human FcRH5 (BIACORE analyte)
T1 sequence: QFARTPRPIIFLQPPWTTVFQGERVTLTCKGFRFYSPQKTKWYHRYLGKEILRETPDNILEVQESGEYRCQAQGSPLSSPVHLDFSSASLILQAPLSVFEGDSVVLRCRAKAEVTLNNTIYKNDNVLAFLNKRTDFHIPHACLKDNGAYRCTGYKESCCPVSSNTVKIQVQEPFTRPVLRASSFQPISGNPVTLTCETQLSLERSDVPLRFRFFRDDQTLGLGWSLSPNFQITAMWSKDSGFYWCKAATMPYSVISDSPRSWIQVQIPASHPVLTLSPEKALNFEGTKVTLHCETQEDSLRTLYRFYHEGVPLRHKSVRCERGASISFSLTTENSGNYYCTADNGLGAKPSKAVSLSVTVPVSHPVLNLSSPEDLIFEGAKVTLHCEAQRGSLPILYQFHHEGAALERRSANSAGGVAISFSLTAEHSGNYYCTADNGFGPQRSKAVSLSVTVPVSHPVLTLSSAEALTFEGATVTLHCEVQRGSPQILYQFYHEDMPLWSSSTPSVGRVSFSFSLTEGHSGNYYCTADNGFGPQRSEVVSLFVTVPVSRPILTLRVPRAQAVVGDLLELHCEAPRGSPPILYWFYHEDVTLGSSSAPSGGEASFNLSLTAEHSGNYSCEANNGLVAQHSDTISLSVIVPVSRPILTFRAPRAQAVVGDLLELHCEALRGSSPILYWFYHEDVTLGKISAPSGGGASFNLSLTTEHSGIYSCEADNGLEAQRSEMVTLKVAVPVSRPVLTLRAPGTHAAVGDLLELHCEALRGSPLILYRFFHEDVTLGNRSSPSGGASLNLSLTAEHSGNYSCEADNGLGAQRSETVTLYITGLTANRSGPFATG

T2: cynomolgus FcRH5 protein fragment (soluble) (cynomolgus monkey)
T2 construct: whole entry named; also called Cyno FcRH5 (BIACORE analyte)
T2 chain: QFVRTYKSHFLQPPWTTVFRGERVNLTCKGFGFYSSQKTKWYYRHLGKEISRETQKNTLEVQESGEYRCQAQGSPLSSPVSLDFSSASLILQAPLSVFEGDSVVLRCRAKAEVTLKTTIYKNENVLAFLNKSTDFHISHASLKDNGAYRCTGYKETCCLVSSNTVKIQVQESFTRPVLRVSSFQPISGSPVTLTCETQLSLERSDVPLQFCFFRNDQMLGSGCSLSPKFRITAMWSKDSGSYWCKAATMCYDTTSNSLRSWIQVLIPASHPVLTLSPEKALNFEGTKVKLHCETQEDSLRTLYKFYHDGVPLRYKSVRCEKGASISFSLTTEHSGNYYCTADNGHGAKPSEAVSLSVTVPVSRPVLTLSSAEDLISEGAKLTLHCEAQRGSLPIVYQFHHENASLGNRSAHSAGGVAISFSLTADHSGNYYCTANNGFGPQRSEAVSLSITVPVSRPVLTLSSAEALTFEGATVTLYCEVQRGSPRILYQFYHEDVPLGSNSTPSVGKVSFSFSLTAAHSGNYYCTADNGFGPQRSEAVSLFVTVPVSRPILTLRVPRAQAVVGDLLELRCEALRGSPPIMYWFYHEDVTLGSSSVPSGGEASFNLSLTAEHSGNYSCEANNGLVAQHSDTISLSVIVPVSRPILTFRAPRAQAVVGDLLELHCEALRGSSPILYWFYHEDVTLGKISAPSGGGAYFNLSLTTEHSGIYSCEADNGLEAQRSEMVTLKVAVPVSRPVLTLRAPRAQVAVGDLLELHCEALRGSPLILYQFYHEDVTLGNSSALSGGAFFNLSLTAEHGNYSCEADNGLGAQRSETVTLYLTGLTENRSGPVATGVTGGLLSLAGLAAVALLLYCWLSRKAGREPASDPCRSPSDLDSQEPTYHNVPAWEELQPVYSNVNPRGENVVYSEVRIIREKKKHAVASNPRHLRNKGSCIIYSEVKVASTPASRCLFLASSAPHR

B1: hu1G7.v1.4/38E4.v1 TDB (bispecific antibody, V domains shown)
VH 1: EVQLVESGPGLVKPSETLSLTCTVSGFSLTRFGVHWVRQPPGKGLEWLGVIWRGGSTDYNAAFMSRLTISKDNSKNQVSLKLSSVTAADTAVYYCSNHYYGSSDYALDNWGQGTLVTVSS
VL 1: DIQMTQSPSSLSASVGDRVTITCKASQDVRNLVVWFQQKPGKAPKLLIYSGSYRYSGVPSRFSGSGSGTDFTLTISSLQPEDFATYYCQQHYSPPYTFGQGTKVEIK
VH 2: EVQLVQSGAEVKKPGASVKVSCKASGFTFTSYYIHWVRQAPGQGLEWIGWIYPENDNTKYNEKFKDRVTITADTSTSTAYLELSSLRSEDTAVYYCARDGYSRYYFDYWGQGTLVTVSS
VL 2: DIVMTQSPDSLAVSLGERATINCKSSQSLLNSRTRKNYLAWYQQKPGQSPKLLIYWTSTRKSGVPDRFSGSGSGTDFTLTISSLQAEDVAVYYCKQSFILRTFGQGTKVEIK
notes: knob-into-hole TDB; also called 1G7.v1.4 TDB; 1G7.v1.4 (TDB format)
B2: 1G7.v85/38E4.v1 TDB (bispecific antibody, V domains shown)
VH 1: B1 VH 1 with M64V
VL 1: B1 VL 1
VH 2: B1 VH 2
VL 2: B1 VL 2
notes: knob-into-hole TDB; also called 1G7.v85 TDB; 1G7.v85 (TDB format)

Key:
[1] = target: T1, human FcRH5 protein fragment (soluble); experiment: SPR (BIACORE), TDB captured as ligand, Hu FcRH5 as analyte, 25 °C, 1:1 binding model
[2] = target: T2, cynomolgus FcRH5 protein fragment …; experiment: SPR, hIgG capture, 1:1 model
Method: (§1) Briefly, a human IgG capture surface was generated on a Series S CM5 chip using amine coupling and the human IgG capture kit (GE Life Sciences, Piscataway, NJ). Test antibodies were then captured on flow cells 2, 3, or 4, with flow cell 1 used as a reference. An FcRH5 protein fragment was used as the analyte, with a flow rate of […]. Between injections the capture surface was regenerated by a 30-second injection of 3M magnesium chloride or 10 mM glycine, pH 1.5. Interactions were assessed at 25° C. in 10 mM HEPES pH7.4, 150 mM NaCl, and 0.05% Tween 20 (HBSP). Reference data from the reference flow cell and from injection of buffer alone were subtracted prior to kinetic analysis. Kinetic information was calculated by fitting data to a 1:1 binding model. Reference subtraction and data fitting were performed using BIAevaluation software (GE Life Sciences, Piscataway, NJ).
(§2) Kinetic characterization experiments were carried out (see Table 8). In these experiments, binding of soluble FcRH5 protein fragment to purified antibodies in human TDB antibody format was analyzed at six different non-zero concentrations (a 1:3 dilution series, one concentration injected twice as a replicate). Flow rate was set at 40 μl/min and association and dissociation monitored for 600 s.

[3] = target: T1, human FcRH5 protein fragment (soluble); experiment: SPR, hIgG capture, 1:1 model
Method: as §1, §2

[4] = target: T1, human FcRH5 protein fragment (soluble); experiment: SPR (BIACORE), Human FcRH5, 1:1 binding model

Binder | Kd [1] | koff [1] | kon [1] | Kd [2] | koff [2] | kon [2] | Kd [3] | koff [3] | kon [3] | Kd [4] | koff [4] | kon [4]
B1 | 2.41 nM | 0.00117 s⁻¹ | 484000 M⁻¹ s⁻¹ | 6.3 nM | 0.0008 s⁻¹ | 100000 M⁻¹ s⁻¹ | 2.4 nM | 0.001 s⁻¹ | 500000 M⁻¹ s⁻¹ |  |  | 
B2 |  |  |  | 6.8 nM | 0.0008 s⁻¹ | 100000 M⁻¹ s⁻¹ | 2.4 nM | 0.001 s⁻¹ | 400000 M⁻¹ s⁻¹ | 2.08 nM | 0.000746 s⁻¹ | 359000 M⁻¹ s⁻¹
